According to patent publication US20240294593A1 (Genentech, published 2024):
Substitutions are numbered along the chain they refer to. Numbers in names are those of the source.

B1: H1.129_L1 (antibody, V domains shown)
VH: EVQLVESGGGLVQPGGSLRLSCAASGFTFSSFGMHWVRQAPGKGLEWVSYISSGSSIIYYADSVKGRFTISRDNAKNSLYLQMNSLRAEDTAVYYCARGGGLVWSPDYWGQGTLVTVSS
VL: DIVMTQSPDSLAVSLGERATINCKSSQSLLNSGNQKNYLTWYQQKPGQPPKLLIYWASTRESGVPDRFTGSGSGTDFTLTISSLQAEDVAVYYCQNDYSYPFTFGSGTKLEIKR
notes: also called VH-R109G; Kabat 97
B2: H1.133_L1 (antibody, V domains shown)
VH: B1 VH with G101R, L102I
VL: B1 VL
notes: also called VH-L110I; Kabat 98
B3: H1.125_L1 (antibody, human IgG1, kappa, V domains shown)
VH: B1 VH with G101E
VL: B1 VL
notes: also called VH-R109E; Kabat 97; copies: 2 + 2
B4: H1.146_L1 (antibody, V domains shown)
VH: B1 VH with G101R, V103Y
VL: B1 VL
notes: also called VH-V111Y; Kabat 99
B5: H1.126_L1 (antibody, V domains shown)
VH: B1 VH with G101D
VL: B1 VL
notes: also called VH-R109D; Kabat 97
B6: H1.117_L1 (antibody, V domains shown)
VH: B1 VH with G100T, G101R
VL: B1 VL
notes: also called VH-G108T; Kabat 96
B7: H1.136_L1 (antibody, V domains shown)
VH: B1 VH with G101R, L102Y
VL: B1 VL
notes: also called VH-L110Y; Kabat 98
B8: mAb C H1.132_L1 (antibody, V domains shown)
VH: B1 VH with G101W
VL: B1 VL
notes: copies: 2 + 2
B9: H1.139_L1 (antibody, V domains shown)
VH: B1 VH with G101R, L102A
VL: B1 VL
notes: also called VH-L110A; Kabat 98
B10: H1.137_L1 (antibody, V domains shown)
VH: B1 VH with G101R, L102W
VL: B1 VL
notes: also called VH-L110W; Kabat 98
B11: H1.128_L1 (antibody, V domains shown)
VH: B1 VH with G101S
VL: B1 VL
notes: also called VH-R109S; Kabat 97
B12: H1.115_L1 (antibody, V domains shown)
VH: B1 VH with G100A, G101R
VL: B1 VL
notes: also called VH-G108A; Kabat 96
B13: H1.135_L1 (antibody, V domains shown)
VH: B1 VH with G101R, L102V
VL: B1 VL
notes: also called VH-L110V; Kabat 98
B14: H1.138_L1 (antibody, V domains shown)
VH: B1 VH with G101R, L102D
VL: B1 VL
notes: also called VH-L110D; Kabat 98
B15: H1.142_L1 (antibody, V domains shown)
VH: B1 VH with G101R, V103T
VL: B1 VL
notes: also called VH-V111T; Kabat 99
B16: H1.145_L1 (antibody, V domains shown)
VH: B1 VH with G101R, V103A
VL: B1 VL
notes: also called VH-V111A; Kabat 99
B17: H1.124_L1 (antibody, V domains shown)
VH: B1 VH with G101K
VL: B1 VL
notes: also called VH-R109K; Kabat 97
B18: H1.116_L1 (antibody, V domains shown)
VH: B1 VH with G100S, G101R
VL: B1 VL
notes: also called VH-G108S; Kabat 96
B19: H1.127_L1 (antibody, V domains shown)
VH: B1 VH with G101H
VL: B1 VL
notes: also called VH-R109H; Kabat 97
B20: H1.123_L1 (antibody, V domains shown)
VH: B1 VH with G100Y, G101R
VL: B1 VL
notes: also called VH-G108Y; Kabat 96
B21: H1.119_L1 (antibody, V domains shown)
VH: B1 VH with G100H, G101R
VL: B1 VL
notes: also called VH-G108H; Kabat 96
B22: H1.144_L1 (antibody, V domains shown)
VH: B1 VH with G101R, V103L
VL: B1 VL
notes: also called VH-V111L; Kabat 99
B23: H1.118_L1 (antibody, V domains shown)
VH: B1 VH with G100Q, G101R
VL: B1 VL
notes: also called VH-G108Q; Kabat 96
B24: H1.131_L1 (antibody, V domains shown)
VH: B1 VH with G101I
VL: B1 VL
notes: also called VH-R109I; Kabat 97
B25: H1.143_L1 (antibody, V domains shown)
VH: B1 VH with G101R, V103I
VL: B1 VL
notes: also called VH-V111I; Kabat 99
B26: H1.141_L1 (antibody, V domains shown)
VH: B1 VH with G101R, L102K
VL: B1 VL
notes: also called VH-L110K; Kabat 98
B27: H1.130_L1 (antibody, human IgG1, kappa, V domains shown)
VH: B1 VH with G101Y
VL: B1 VL
notes: also called VH-R109Y; Kabat 97; copies: 2 + 2
B28: H1.134_L1 (antibody, V domains shown)
VH: B1 VH with G101R, L102F
VL: B1 VL
notes: also called VH-L110F; Kabat 98
B29: H1.114_L1 (antibody, V domains shown)
VH: B1 VH with G99Y, G101R
VL: B1 VL
notes: also called VH-G103Y; Kabat 95
B30: H1.25_L1 (antibody, human IgG1, kappa, V domains shown)
VH: B1 VH with F32K, G101R
VL: B1 VL
notes: also called VH-F34K; Kabat 32K; copies: 2 + 2
B31: H1.31_L1 (antibody, human IgG1, kappa, V domains shown)
VH: B1 VH with G33D, G101R
VL: B1 VL
notes: also called VH-G35D; Kabat 33D; copies: 2 + 2
B32: H1.30_L1 (antibody, human IgG1, kappa, V domains shown)
VH: B1 VH with G33H, G101R
VL: B1 VL
notes: also called VH-G35H; Kabat 33H
B33: H1.26_L1 (antibody, human IgG1, kappa, V domains shown)
VH: B1 VH with G33A, G101R
VL: B1 VL
notes: also called VH-G35A; Kabat 33A; copies: 2 + 2
B34: H1.29_L1 (antibody, human IgG1, kappa, V domains shown)
VH: B1 VH with G33N, G101R
VL: B1 VL
notes: also called VH-G35N; Kabat 33N
B35: H1.27_L1 (antibody, human IgG1, kappa, V domains shown)
VH: B1 VH with G33S, G101R
VL: B1 VL
notes: also called VH-G35S; Kabat 33S; copies: 2 + 2
B36: H1.28_L1 (antibody, human IgG1, kappa, V domains shown)
VH: B1 VH with G33T, G101R
VL: B1 VL
notes: also called VH-G35T; Kabat 33T; copies: 2 + 2
B37: mAb C H1.19_L1 (antibody, name in Kabat numbering, V domains shown)
VH: B1 VH with F32L, G101R
VL: DIVMTQSPDSLAVSLGERATINCKSSQSLLNSGNQKNYLTWYQQKPGQPPKLLIYWASTRESGVPDRFTGSGSGTDFTLTISSLQAEDVAVYYCQNDYSYPFTFGSGTKLEIK
B38: H1.36_L1 (antibody, human IgG1, kappa, V domains shown)
VH: B1 VH with S52T, G101R
VL: B1 VL
notes: also called VH-S54T; Kabat 52T; copies: 2 + 2

target: T1, human PD-1-His (human, UniProt Q15116 25-167, limits assumed); test: Octet
T1 construct: Antigen of the Octet assays; not shown: His tag
T1 sequence (Q15116 25-167 limits assumed): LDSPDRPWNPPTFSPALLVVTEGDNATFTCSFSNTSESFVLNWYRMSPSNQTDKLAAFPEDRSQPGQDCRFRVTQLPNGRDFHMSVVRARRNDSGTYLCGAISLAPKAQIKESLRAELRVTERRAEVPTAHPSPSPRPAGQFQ

Row | Binder | Kd | koff | kon
1 | B1 | 43.2 nM | 0.00719 s⁻¹ | 167000 M⁻¹ s⁻¹
2 | B2 | 49.5 nM | 0.00753 s⁻¹ | 152000 M⁻¹ s⁻¹
3 | B3 | 18.7 nM | 0.0052 s⁻¹ | 278000 M⁻¹ s⁻¹
4 | B4 | 102 nM | 0.0157 s⁻¹ | 155000 M⁻¹ s⁻¹
5 | B5 | 43.1 nM | 0.0109 s⁻¹ | 254000 M⁻¹ s⁻¹
6 | B6 | 121 nM | 0.0105 s⁻¹ | 86900 M⁻¹ s⁻¹
7 | B7 | 54.5 nM | 0.00863 s⁻¹ | 158000 M⁻¹ s⁻¹
8 | B8 | 9.63 nM | 0.00218 s⁻¹ | 227000 M⁻¹ s⁻¹
9 | B9 | 98.9 nM | 0.011 s⁻¹ | 111000 M⁻¹ s⁻¹
10 | B10 | 32.6 nM | 0.0056 s⁻¹ | 172000 M⁻¹ s⁻¹
11 | B11 | 32.8 nM | 0.00608 s⁻¹ | 186000 M⁻¹ s⁻¹
12 | B12 | 76.7 nM | 0.0116 s⁻¹ | 151000 M⁻¹ s⁻¹
13 | B13 | 46.7 nM | 0.00685 s⁻¹ | 147000 M⁻¹ s⁻¹
14 | B14 | 116 nM | 0.0128 s⁻¹ | 110000 M⁻¹ s⁻¹
15 | B15 | 88 nM | 0.0118 s⁻¹ | 134000 M⁻¹ s⁻¹
16 | B16 | 110 nM | 0.0177 s⁻¹ | 161000 M⁻¹ s⁻¹
17 | B17 | 48.8 nM | 0.00674 s⁻¹ | 138000 M⁻¹ s⁻¹
18 | B18 | 183 nM | 0.0347 s⁻¹ | 190000 M⁻¹ s⁻¹
19 | B19 | 30.8 nM | 0.00578 s⁻¹ | 188000 M⁻¹ s⁻¹
20 | B20 | 350 nM | 0.0538 s⁻¹ | 154000 M⁻¹ s⁻¹
21 | B21 | 186 nM | 0.0376 s⁻¹ | 202000 M⁻¹ s⁻¹
22 | B22 | 130 nM | 0.0174 s⁻¹ | 134000 M⁻¹ s⁻¹
23 | B23 | 192 nM | 0.0316 s⁻¹ | 164000 M⁻¹ s⁻¹
24 | B24 | 43.5 nM | 0.00878 s⁻¹ | 202000 M⁻¹ s⁻¹
25 | B25 | 35.6 nM | 0.00633 s⁻¹ | 178000 M⁻¹ s⁻¹
26 | B26 | 118 nM | 0.0132 s⁻¹ | 112000 M⁻¹ s⁻¹
27 | B27 | 22.1 nM | 0.00505 s⁻¹ | 228000 M⁻¹ s⁻¹
28 | B28 | 60.8 nM | 0.0088 s⁻¹ | 145000 M⁻¹ s⁻¹
29 | B29 | 592 nM | 0.0875 s⁻¹ | 148000 M⁻¹ s⁻¹

target: T1, human PD-1-His; test: Octet; remark: another data set of the same source

Row | Binder | Kd | koff | kon
30 | B30 | 113 nM | 0.012 s⁻¹ | 107000 M⁻¹ s⁻¹
31 | B31 | 56.4 nM | 0.0401 s⁻¹ | 711000 M⁻¹ s⁻¹
32 | B32 | 76.4 nM | 0.0257 s⁻¹ | 337000 M⁻¹ s⁻¹
33 | B33 | 193 nM | 0.036 s⁻¹ | 187000 M⁻¹ s⁻¹
34 | B34 | 223 nM | 0.0437 s⁻¹ | 196000 M⁻¹ s⁻¹
35 | B35 | 104 nM | 0.0142 s⁻¹ | 137000 M⁻¹ s⁻¹
36 | B36 | 92.7 nM | 0.0279 s⁻¹ | 301000 M⁻¹ s⁻¹
37 | B37 | 16.7 nM | 0.00217 s⁻¹ | 130000 M⁻¹ s⁻¹
38 | B38 | 374 nM | 0.046 s⁻¹ | 123000 M⁻¹ s⁻¹
